Laboratory results published in the nanobody polyreactivity screen of Harvey et al. (2022).

Assay: yeast display, Sf9 membrane polyspecificity reagent, FACS + sequencing; frameworks hold sequencing errors
Method in brief: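 Using colony PCR, genes from sorted yeast display clones were amplified, then sequenced on MiSeq at 2 × 250 and filtered by CDR length. The clones had been stained with 10% biotinylated, detergent-solubilized Sf9 membrane reagent for 1 hour at 4 °C and sorted by FACS into low and high (top ~1%) gates on anti-HA and streptavidin fluorescence. Polyreactivity labels come from the gate of origin.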

Sequence | polyreactivity (PSR sort gate)
QVQLVESGGGLVQAGGSLRLSCAASGLTFKRYAMGWYRQAPGKERELVAGINYSSGSTYYADSVKARFTISRDNAKNTVYLQMNSLKPEDTAVYYCAADGGISAGANSGYDYWGQGTQVTVSS | high polyreactivity
QVQLVESVGGLVQAGGSLRLSCAASGFTSWDNDMGWYRQAPGKERELVAAISRGGSTNYADSVKGRFTISRDNAKNTVYLQMNSLKPEDTAVYYCATAAVTPVWYDYWGQGTQVTVSS | low polyreactivity
QVHLVESGGGLVQAGGSLRLSCAASGRIFKTYAMRWYRQAPGKERELVAAITASGGRTYDADSVKGRFTISRDNAKNTVYLQMNSLTPEDSAVYYCAAPLLRDLRSPYYYNYWGQGTQVTVSS | low polyreactivity
QVQLVESGGGLVQAGGSLRLSCAAYGITFPSYTMGWYRQAPGKERELVATIRNGGSTYYADSVKGRFTISRDNAKNTVYLQMNSLKPEDTAVYYCAAKDTGYGYGVPRLDYWGQGTQVTVSS | low polyreactivity
QVQLVESVRGVVQAGGSLRLSCASSVFTFRWYAMGWFRQAPGKESELVADITRHGGSTYYADSVKGRFTISRDNAKNTVYLQMNSLKPEDTAVYYCAADLSWYDWEDDYWGQGTQVTVSS | low polyreactivity
QVQLVESGGGLVQAGGSLRLSCAASGSTFFVYDMGWYRQAPGKERELVAAISSDTSTNYADSVKGRFTISRDNAKNTVYLQMNSLKPEDTAVYYCNADSYWEYDYWGQGTQVTVSS | low polyreactivity
QVQLVESGGGLVQAGGSLRLSCAASGRIFTRYTMGWYRQAPGKERQLVASITSSGSSSYYADSVKGRFTISRDYAKNTVYLQMNSLKPEDTAVYYCAARSRLRYLYDYWGHGTQVTVSS | high polyreactivity
QVQLVESGGGLVQAGGSLRLSCAASGSTLTFNAMGWYRQAPWKERELVAAISWSDTDTYYADSVKGRFTISRDNAKNTVYLQINSLKPEDTAVYYCAATLSAYEMDYWGQGTQVTVSS | low polyreactivity
QVQLVESGGGLVQAGGSLRLSCAASGITFVYYDMGWYRQAPGKERELVAAISSDGSTYYADSVKGRFTISRDNAKNTVYLQMNSLKPEDSAVYYCAADYFNYRGYTYLGDYWGQCTQVTVSS | low polyreactivity
QVQLVESGGGLVQAGSSLRLSCAASGRTFTGNAMGRYRQAPGKERELVADISSDGSTNYADSVKGRFTISRDNAKNTVYLQMNSLKPEDTAVYYCAADPFWTYYIDYDYWGQGTQVTVSS | low polyreactivity
QVQLVESGGGLVQAGGSLRLSCAASGSTFYQYAMGWYRQAPGKERELVAAITGSGTRTYYADSVKGRFTISRDNAKNTVYLQMNSLKPEDTAVYYCAAQKYYQGYNYWGQGTQVTVSS | high polyreactivity
QVQLVESGGGLVQAGGSLRLSCAASGIIFIYYDMGWYRQAPGKERELVAAISRSGGSTYYADSVKGRFTISRDIAKNTFYLQMNSLKPEDTAVYYCAARRITSTDEYYWGHGTQVTVSS | high polyreactivity
QVQLVESGGGLVQAGGSLRLSCAASGFTFKYYVMGWYRQAPGKERELVASISKRGGSTRYADSVKGRFTISLDNAKNTVYLQMNSLKPEDTAVYYCAAEYWYYWEYEYWGQGTQVTVSS | high polyreactivity
QDQLVESGGVLVQAGGSLRLSCAASGSIFGYYAMGWYRQAPGKERELVARISYSGGTTYYADSVKGRFTNSRDNAKNTVYLQMNSQIPEDTAVYYCNARIPYSWRYGYWGQGTQVTVSS | high polyreactivity
QVQLVESGGGLVQAGGSLRLICAASGITFSLYVKGRYSQAPGNERELVAAISTSGGSTYYADSVKGRFSLSRDNPKKSVYFQMNSLKPEDTSVYYCAAVYVLSWYVQTYDYWGQGTQVTVSS | low polyreactivity
QVQLVESGGGLVQAGASLRLSCAASGFTFGTYVMGWYRQAPGKERELVARITYGGGRTYYADSVKGRFTISRDNAKNTVYLQMNSLNPEDTAVYYSNARVTYSRYFKGYNYWGQGTQVTVSS | high polyreactivity
QVQLVESGGGLVQAGGSLRLSCAASGSTFVRYAMGWYRQAPGKERELVAAISKSGGSTYYADSVKGRFTISRDNAKNTVYLQMNSLKPEDTAVYYCNADVYKNSKFRIMGYWGQGTQVTVSS | high polyreactivity
